Results from the RNAGym collection of RNA variant scans (doi:10.1073/pnas.2313332121).

B1: TPR t1 (parent)
chain: GACCAAUCUGCCCUCAGAGCUCGAGAACAUCUUCGGAUGCAGAGGAGGCAGGCUUCGGUGGCGCGAUAGCGCCAACGUCCUCAACCUCCAAUGCAUCCCACCACAUGAUGAUGCCUGAAGAGCCUUGGUUUUUUG

Variants of: B1
Experiment: polymerase ribozyme fitness, log enrichment relative to wild type (log ratio); higher = more active; in vitro selection for triplet polymerase activity
Method in brief: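 Only genotypes with ≥10 input reads and ≥1 read per output were kept after Illumina sequencing of input and output libraries. These libraries were PCR-built, transcribed mutants of each subunit of a heterodimeric triplet polymerase ribozyme, each put through one triplicate in vitro selection round with frozen incubation at −7 °C, gel excision of extended constructs, streptavidin-bead capture and RT-PCR. Fitness is a logarithmic ratio of genotype enrichment to wild-type enrichment, from inverse-variance-weighted replicate averages, with the logarithm in base 2.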

First: GACCAAUCUGCCCUCAGAGCUCGAGAACAUCUUCGGAUGCAGAGGAGGCAGGCUUCGGUGGUGCGAUAGCGCCAACGUCCUCAACCUCCAAUGCAUCCCACCACAUGAUGAUGCCUGAAGAGCGUUGGUUUUUUG [C62U C124G]
Second: GACCAAUCUGCCCUCAGAGCUCGAGAACAUCUUCGGAUGCAGAGGAGGCAGGCUUCGGUGGUGCGAUAGCGCCAACGUCCUCAACCUCCAAUCCAUCCCACCACUUGAUGAUGCCUGAAGAGCCUUGGUUUUUUG [C62U G93C A105U]
The “polymerase ribozyme fitness (log ratio)” value of the first is higher: 1.52 for the first, -3.5 for the second.

First: GACCAAUCUGCCCUCAGAGCUCGAGAACAUCUUCGGAUGCAGAGGAGGCAGGCUUCGGUGGUGCGAUAGCGCCAACGUCCUCAACCUCCAAUGCAUCCCACCACAUGAUGAUGCCUAAAGAGCCUUGGUUAUUUG [C62U G117A U131A]
Second: GACCAAUCUGCCCUCAGAGCUCGAGAACAUCUUCGGAUGCAGAGGAGGCAGGCUUCGGUGGUGCGAUAGCGCCAACGUCCUCAACCUCCAAUGCAUCCCACCACAUGAAGAUGCCUUACGAGCCUUGGUUUUUUG [C62U U109A G117U A119C]
The “polymerase ribozyme fitness (log ratio)” value of the first is higher: -1.44 for the first, -7.11 for the second.

First: GACCAAUCUGCCCUCAGAGCUCGAGAACAUCUUCGGAUGCAGAGGAGGCAGGCUUCGGUGGUGCGAUAGCGCCAACGCCCUCAACCUCCAAUGCAUCCCACCACAUGAUGAUGCCUGAAGAGCCUUGGUUUUUUG [C62U U78C]
Second: GACCAAUCUGCCCUCAGAGCUCGAGAACAUCUUCGGAUGCAGAGGAGGCAGGCUUCGGUGGUGCGAUAGCGCCAACGUCCUCAACCUCCAAUGCAUCCCACCACAUGAUGAUGCCUGAAUAGCCUUGGUUUUUUG [C62U G120U]
The “polymerase ribozyme fitness (log ratio)” value of the first is lower: -0.402 for the first, -0.189 for the second.

Compared with GACCAAUCUGCCCUCAGAGCUCGAGAACAUCUUCGGAUGCAGAGGAGGCAGGCUUCGGUGGUGCGAUAGCGCCAACGUCCUCAACCUCCAAUGCAUCCCACCACAUGAUGAUGCCUGAAGAGCCUUGCUUUUUUG [C62U G128C], GACCAAUCUGCCCUCAGAGCUCGAGAACAUCUUCGGAUGCAGAGGAGGCAGGCUUCGGUGGUGCGAUAGCGCCAACGUCCUCAACCUCCAAUGCAUCCCACCACAUGAUGAUGCCUGAAGAGCCUUGCUUUUCUG [C62U G128C U133C] is higher in “polymerase ribozyme fitness (log ratio)” value: -3.37 for the first, -2.74 for the second.

First: GACCAAUCUGCCCUCAGAGCUCGAGAACAUCUUCGGAUGCAGAGGAGGCAGGCUUCGGUGGUGCGAUAGCGCCAACGACCUCAACCUCCAAUGCACCCCACCACAUGAUGAUGCCUGAAGAGCCUUGGUUUUUUG [C62U U78A U96C]
Second: GACCAAUCUGCCCUCAGAGCUCGAGAACAUCUUCGGAUGCAGAGGAGGCAGGCUUCGGUGGUGCGAUAGCGCCAACGUCCUCAACCUCCAAUGCAUCCCACCACAUGAUGAUGCGUGAAGAGCCUUGGAUUUUUG [C62U C115G U129A]
The “polymerase ribozyme fitness (log ratio)” value of the first is higher: -0.0957 for the first, -3.05 for the second.

Going from GACCAAUCUGCCCUCAGAGCUCGAGAACAUCUUCGGAUGCAGAGGAGGCAGGCUUCGGUGGUGCGAUACCGCCAACGUCCUCAACCUCCAAUGCAUCCCACCACAUGAUGAUGCCUGAAGAGCCUUGGUUUUUUG [C62U G69C] to GACCAAUCUGCCCUCAGAGCUCGAGAACAUCUUCGGAUGCAGAGGAGGCAGGCUUCGGUGGUGCGAUACCGCCAACGUCCUCAACCUCCAAUGCAUCCCACGACAUGAUGAUGCCUGAAGAGCCUUGGUGUUUUG [C62U G69C C102G U130G], the “polymerase ribozyme fitness (log ratio)” value falls from -3.19 to -7.34.

Compared with GACCAAUCUGCCCUCAGAGCUCGAGAACAUCUUCGGAUGCAGAGGAGGCAGGCUUCGGUGGUGCGAUAGCGCCAACGUCCUCAACCUCCAAUGCAUCCCACCACAUGAUCAUGCCUGAAGAGCCUUGGUUUUUUG [C62U G110C], GACCAAUCUGCCCUCAGAGCUCGAGAACAUCUUCGGAUGCAGAGGAGGCAGGCUUCGGUGGUGCGAUAGCGCCAACGCCCUCAACCUCCAAUGAAUCCCACCACAUGAUGAUGCCUGAAGAGCCUUGGUUUUUUG [C62U U78C C94A] is higher in “polymerase ribozyme fitness (log ratio)” value: -3.93 for the first, -1.92 for the second.

Compared with GACCAAUCUGCCCUCAGAGCUCGAGAACAUCUUCGGAUGCAGAGGAGGCAGGCUUCGGUGGUGCGAUAGCGCCAACGUCCUCAACCUCCAAUGCAUCCCACCACAUGAUGAUCCCUGAAGAGCAUUGGUUUUAUG [C62U G113C C124A U133A], GACCAAUCUGCCCUCAGAGCUCGAGAACAUCUUCGGAUGCAGAGGAGGCAGGCUUCGGUGGUGCGAUAGCUCCAACGUCCUCAACCUCCAAUGCAUCCCACCACAUGAUGAUGCCUGAAUAGCCUUGGUUUUUUG [C62U G71U G120U] is higher in “polymerase ribozyme fitness (log ratio)” value: -2.07 for the first, 0.0266 for the second.

First: GACCAAUCUGCCCUCAGAGCUCGAGAACAUCUUCGGAUGCAGAGGAGGCAGGCUUCGGUGGUGCGAUAGCGCCAACGUCCUCAACCUCCAAUGCAUCCCACCACAUGAUGAUACCUGAAGAGCCUUGGUUUUUUG [C62U G113A]
Second: GACCAAUCUGCCCUCAGAGCUCGAGAACAUCUUCGGAUGCAGAGGAGGCAGGCUUCGGUGGUGCGAUAGCGCCAACGUCCUCAACCUCCAAUUCAUCCCACCACAUGAUGAGGCCUGAAGAGCCUUGGAUUUUUG [C62U G93U U112G U129A]
The “polymerase ribozyme fitness (log ratio)” value of the first is higher: -0.93 for the first, -3.65 for the second.

Compared with GACCAAUCUGCCCUCAGAGCUCGAGAACAUCUUCGGAUGCAGAGGAGGCAGGCUUCGGUGGUGCGAUAGCGCCAACGUCCUCAACCUCCAAUGCAACCCACCACAUGAUGAUGCCUGAAGAGCCUUGGUUUUUUG [C62U U96A], GACCAAUCUGCCCUCAGAGCUCGAGAACAUCUUCGGAUGCAGAGGAGGCAGGCUUCGGUGGUGCGAUAGCGCCAACAUCCUCAACCACCAAUGCAUCCCACCACAUGAUGUUGCCUGAAGAUCCUUGGUUUUUUG [C62U G77A U87A A111U G122U] is lower in “polymerase ribozyme fitness (log ratio)” value: -0.822 for the first, -5.7 for the second.

In the case of GACCAAUCUGCCCUCAGAGCUCGAGAACAUCUUCGGAUGCAGAGGAGGCAGGCUUCGGUGGUGCGAUAGCGCCAACGUCCUCAACCUCCAAUGCAUCCCACCACAUGAUGAUGGCUGAAGCGCCUUGGUUUUUUA [C62U C114G A121C G135A], the “polymerase ribozyme fitness (log ratio)” value is reported as -1.63.
